Measured values from PMC11633110.

How the values were obtained:
[1] = biological target: T1, SydR' (WT, CC) (Sinorhizobium meliloti Rm2011) (UniProt Q92XY2); experiment: EMSA; conditions: 10 mM Tris-HCl pH 8, 50 mM KCl, 0.5 mM EDTA, 10% glycerol, 0.5 mM DTT, 10 nM DNA, 25°C 25 min; 8% PAGE in 0.5x TBE
T1 sequence: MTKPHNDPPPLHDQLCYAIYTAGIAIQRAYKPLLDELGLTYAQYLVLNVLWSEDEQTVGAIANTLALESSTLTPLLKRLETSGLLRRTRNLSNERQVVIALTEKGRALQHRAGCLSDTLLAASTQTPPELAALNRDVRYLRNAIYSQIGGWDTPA

[2] = biological target: His-tagged recombinant SydR (SydR′), wild type (Sinorhizobium meliloti); experiment: cross-linking; intersubunit disulfide bond assay: proteins reduced in 100 mM DTT for 2 h, desalted, oxidised with 100 mM NaOCl for 30 min, 100 mM N-ethylmaleimide for 2 h at room temperature, 10% non-reducing SDS-PAGE; shows covalent (disulfide) dimers only
[3] = biological target: SydRC16S (SC) (Sinorhizobium meliloti); experiment: as above
[4] = biological target: SydRC114S (CS) (Sinorhizobium meliloti); experiment: as above

CCGCCTTCCAGATCAGTACCGGCTTGCTTAGCCAAGCGCTCGGCCAAACGGACTGAGGCCTCCGTTGCGATCCACCCAGGCGACACCCGCACGACCCGGATACCTTTGGACGAAATTTCCTTCGCTATCGACTTGCCG (double strand) [SMa2019 internal fragment, 138 bp]
binding [1]: no binding

His-tagged recombinant SydR (SydR′), wild type (natural protein)
stoichiometry N [2]: 2

SydRC16S (SC) (natural protein)
stoichiometry N [3]: 2

SydRC114S (CS) (natural protein)
stoichiometry N [4]: 2

TCTGGGCTCCTTTGCGCACCAATATAATCAAGATTACCGCGAAAACCAATATCGCGATAAGAGATATGTTGACGAGCAGTTCAATATCTGACAACTTAAATATATCGCGATAACAGTTATCGCTATCAACGAAAGGAAAAAGCC (double strand) [sydR-SMa2023 intergenic region, 144 bp]
binding [1]: binds
